Measured values taken from article PMC4824076, “Integrated microfluidic approach for quantitative high-throughput measurements of transcription factor binding affinities”.
Positions count from the first letter of the chain named.

T1: ATF1 (Homo sapiens, UniProt P18846)
T1 sequence: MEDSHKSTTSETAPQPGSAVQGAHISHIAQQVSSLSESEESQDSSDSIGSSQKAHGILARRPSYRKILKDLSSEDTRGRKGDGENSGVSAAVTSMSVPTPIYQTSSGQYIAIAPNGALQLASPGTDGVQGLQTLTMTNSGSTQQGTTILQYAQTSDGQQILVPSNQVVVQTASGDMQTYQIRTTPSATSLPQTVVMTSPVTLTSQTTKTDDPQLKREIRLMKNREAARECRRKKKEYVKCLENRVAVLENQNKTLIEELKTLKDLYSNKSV

B1: oligo 2 (CRE) (dsDNA)
DNA 1: TTATGACCTGGGAGTGACGTCATGGAATCCACAGA
DNA 2: TCTGTGGATTCCATGACGTCACTCCCAGGTCATAA
B2: oligo 4 (AP-1) (dsDNA)
DNA 1: B1 DNA 1 with C18G, G19T, T20C, C21A
DNA 2: B1 DNA 2 with G15T, A16G, C17A, G18C
B3: oligo 7 (Mutant) (dsDNA)
DNA 1: GGCCACTACCGCTTCCTCCACAAATAAAATTGGTTTTCTCCACCAAGGAAGT
DNA 2: ACTTCCTTGGTGGAGAAAACCAATTTTATTTGTGGAGGAAGCGGTAGTGGCC
B4: oligo 3 (AP-1) (dsDNA)
DNA 1: GGCCACTACCGCTTCCTCCACATGAGTCATGGTTTTCTCCACCAAGGAAGT
DNA 2: ACTTCCTTGGTGGAGAAAACCATGACTCATGTGGAGGAAGCGGTAGTGGCC
B5: oligo 1 (CRE) (dsDNA)
DNA 1: GGCCACTACCGCTTCCTCCACATGACGTCATGGTTTTCTCCACCAAGGAAGT
DNA 2: ACTTCCTTGGTGGAGAAAACCATGACGTCATGTGGAGGAAGCGGTAGTGGCC
B6: oligo 5 (HS) (dsDNA)
DNA 1: B5 DNA 1 with A25G
DNA 2: B5 DNA 2 with T28C
B7: oligo 6 (HS) (dsDNA)
DNA 1: TTATCCACTTGCGCTCGCCGAGTGGCGTCACCAGCGGTACTGTAATGACGAT
DNA 2: ATCGTCATTACAGTACCGCTGGTGACGCCACTCGGCGAGCGCAAGTGGATAA

What was measured:
c-Jun;c-Fos (;) = c-Jun;c-Fos (;) (UniProt P05412+P01100); experiment: MITOMI (QPID); details: QPID microfluidic MITOMI; 1 h incubation of in vitro expressed extract (about 25 ul, 50 ng protein) with spotted Cy5-dsDNA (0.0156-2 uM spotting dilutions, PEG …)
Sequence of c-Jun;c-Fos (;) (P05412 252-315, chain 1 of 2): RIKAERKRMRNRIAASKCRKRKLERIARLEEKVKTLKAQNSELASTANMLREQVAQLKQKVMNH
Sequence of c-Jun;c-Fos (;) (P01100 137-200, chain 2 of 2): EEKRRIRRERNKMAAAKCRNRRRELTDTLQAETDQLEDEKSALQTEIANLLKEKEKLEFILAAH

c-Jun [1] = molecular target: c-Jun (UniProt P05412); experiment: MITOMI (QPID); details: QPID microfluidic MITOMI; 1 h incubation of in vitro expressed extract (about 25 ul, 50 ng protein) with spotted Cy5-dsDNA (0.0156-2 uM spotting dilutions, PEG …)
Sequence of c-Jun (UniProt P05412) (P05412 252-315): as the sequence (P05412 252-315, chain 1 of 2) above

c-Fos/c-Jun = c-Fos/c-Jun (Homo sapiens, UniProt P01100;P05412 full;full); experiment: MITOMI-type chip (QPID); rabbit reticulocyte lysate, 1 h; wash 50 mM HEPES; temperature not stated; DNA spotted at 0.0156-2 uM; details: tags: c-Fos N-cMyc, C-His6; c-Jun HA and V5 at the termini (kept); copies: 1;1; label: Cy5 on the primer strand
Sequence of c-Fos/c-Jun (P01100 whole entry, chain 1 of 2): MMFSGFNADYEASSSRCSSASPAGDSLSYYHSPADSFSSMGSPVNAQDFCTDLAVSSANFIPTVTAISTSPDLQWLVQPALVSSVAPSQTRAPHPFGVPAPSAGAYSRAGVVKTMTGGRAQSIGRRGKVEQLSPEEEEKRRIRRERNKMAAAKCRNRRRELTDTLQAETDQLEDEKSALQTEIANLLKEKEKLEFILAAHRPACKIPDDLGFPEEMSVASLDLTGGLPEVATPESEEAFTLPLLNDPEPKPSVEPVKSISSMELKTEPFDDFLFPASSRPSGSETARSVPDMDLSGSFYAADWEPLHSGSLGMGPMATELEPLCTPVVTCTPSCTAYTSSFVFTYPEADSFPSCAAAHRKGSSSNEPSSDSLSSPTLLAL
Sequence of c-Fos/c-Jun (P05412 whole entry, chain 2 of 2): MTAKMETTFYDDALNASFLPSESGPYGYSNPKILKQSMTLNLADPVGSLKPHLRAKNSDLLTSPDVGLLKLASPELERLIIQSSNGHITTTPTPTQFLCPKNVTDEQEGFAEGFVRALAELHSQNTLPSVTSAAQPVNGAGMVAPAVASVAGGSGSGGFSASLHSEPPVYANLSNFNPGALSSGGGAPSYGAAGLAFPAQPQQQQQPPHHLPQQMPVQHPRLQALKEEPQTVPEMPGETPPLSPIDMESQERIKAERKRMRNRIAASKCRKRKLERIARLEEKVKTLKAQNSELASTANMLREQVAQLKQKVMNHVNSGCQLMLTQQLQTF

c-Jun [2] = molecular target: c-Jun (Homo sapiens, UniProt P05412); experiment: as above; details: tags: N-cMyc, C-His6 (kept); chain copies: 2; label: Cy5 on the primer strand
Sequence of c-Jun (Homo sapiens, UniProt P05412) (P05412 whole entry): as the sequence (P05412 whole entry, chain 2 of 2) above

ATF1 = molecular target: T1, ATF1; experiment: as above; details: tags: N-cMyc, C-His6 (kept); chain copies: 2; label: Cy5 on the primer strand
c-Fos = c-Fos (Homo sapiens, UniProt P01100); experiment: as above; details: tags: N-cMyc, C-His6 (kept); label: Cy5 on the primer strand
Sequence of c-Fos (P01100 whole entry): as the sequence (P01100 whole entry, chain 1 of 2) above

Molecule	Kd (c-Jun;c-Fos (;)) [nM]	Kd (c-Jun [1]) [nM]	Kd (c-Fos/c-Jun) [nM]	Kd (c-Jun [2]) [nM]	Kd (ATF1) [nM]	Kd (c-Fos) [nM]
TTATGACCTGGGAGTGACGTCATGGAATCCACAGA (double strand) [oligo 2 (CRE)]	150	2400				
GGCCACTACCGCTTCCTCCACATGGCGTCATGGTTTTCTCCACCAAGGAAGT (double strand) [oligo 5 (CRE half-site)]	3500					
TTATGACCTGGGAGTGAGTCAATGGAATCCACAGA (double strand) [oligo 4 (AP-1)]	500					
GGCCACTACCGCTTCCTCCACATGACGTCATGGTTTTCTCCACCAAGGAAGT (double strand) [oligo 1 (CRE)]	190	1300				
GGCCACTACCGCTTCCTCCACATGAGTCATGGTTTTCTCCACCAAGGAAGT (double strand) [oligo 3 (AP-1)]	270	2500				
TTATCCACTTGCGCTCGCCGAGTGGCGTCACCAGCGGTACTGTAATGACGAT (double strand) [oligo 6 (CRE half-site)]	4000					
B1			150	~2400	30	> 2000
B2			500		~17000	> 2000
B3					> 2000	> 2000
B4			270	~2500	~11000	> 2000
B5			190	1300	40	> 2000
B6			~3500		170	> 2000
B7			~4000		40	> 2000
